Measurements from the DeepSol protein solubility set.

Experiment: soluble on expression in E. coli; label from the status in PepcDB or PDB records

| Sequence | soluble on expression in E. coli |
| --- | --- |
| MAHHHHHHMRNSKEGNLIVHDLDFMKRILLNDERKWGEESAPGEGRTESSHQPKIITIVLNNTLCAHSAKFIANSDVLICADGGANRLYNLCQSLATERGAIDDEGSSLKGEEDKNTALHASHTNERSHHVSGRHTISDLFNMPVEKKEKALKRPTEIVPHIICGDFDSINAHVYSYYKNKSVIFEKCANQENTDLDKCIDVIRGYIRTNDKILILGATGNRFDHTCANISCLYKNASLNSLYLIGENNFLFLLQQGSHIIHVSPDVFCKGCGILPFGGKCTIKTEGLKYNLNDECLSFDTLISSSNEVVQREVKIFNDSPVVWSAQLRGDAQSHTHS | soluble |
| MAHHHHHHMRNSLRLRLSSTSSSLLRSTFWLRQCGSGGCGFSGGPGGYPTDADALAKILTQAKKGSFNGSSSSPSDFFDGRFVGGSPTMDPAMLQDMHQKLNQSLTPEVRESMKAMMESIQRGDGMPQMGMMAFGVGENEKGKKVARGAKLMFDPSTGKLSKDFVEKQLEDDDPVLPKETVGDYNTEGAIEVEFEEDARKEASVRENIPEAEVIVEEVPREK | not soluble |
| MAHHHHHHMRPLLVFGLRGTLLERIHASRVPSGMPGGAITVGMSRVWLRPSAMETLLALQQHCTLAVWSSTTARNTTPLMEAVFSQHAQKVNFAFVWSREHTTADEFRRVSATSRDDQHATVKDLREVYRRFPEIATPQNTVLIDDTPSKGKLNASNFLWLETCEELKIENPNVMPALRRFVEEHLLAEREDVRRLLPARVPWGQQ | not soluble |
| MAHHHHHHMRRSVIRTRKEFLERKQHERVHEAIHARKEQFRSAVETATPLPGHLKKDALALKKFTELDDAQTRNLTTTVDDEYANAGQEDPHVLVTTSRNASQKLLEFAKEVRLIVPNAVRMNRGNLSVHQLMDAARKENYTDVLVLQESQGVPDSLIVSHLPLGPTVTFTIHNLVARHDIDGVGTMSEQYPHLVFENFSTKLGIRIKDVLRYLFPVPKADASRVLTFDNENDFISFRHHTFKKEKGKKQVELTEVGPRFELTPYRIVLGTLEMDDAETEWVLQPYMNTAKKRRLL | soluble |
| MAHHHHHHMSASLKKTALHLFHLAQQAKMDAFAGYHMPISYGRLGVLKEHLYTREVAGIFDVSHVGQYEVRGADRERFLEHVTPVDLQRIRAGHGALTMLTNAQGGIKDDCIVTKMADHLFLVLNAGCKEKDVAHMESVLRESAMKGADVQLVPLDRSLIALQGPQAAAILSEFMDDVPGMGFMQCRQRVNIKGMEVQVTRCGYTGEDGFELSVSNTDIVALVELLMSRKAEMIGLGARDSLRLEAGLNLYGHELTEDINPVAARFMWVISKRRMAEGGFIGYEPIKYLRDNASKGAVPRLRVGLVSTGPVAREKTVIEVGGKPVGEVTSGCPSPCLKKNIAIGYLDRELAKDGVKVDLVVRGRRVAAVVVTPPFVPARYYRKPK | not soluble |
| MAHHHHHHMSATPPPPPPPSSNASTGYPHTRASPGTYRGAGRGAYSRGPSYQSSGSSPSSSPIYTSGPSRRGGGNTRVRVHTYGFVHADPAASLAAAPPASHTSAPRATPDVATPPLPSASSAASPPLSSISSDVLSSLNASVQESLSGYLYTDAIELAQRLFDLEASYAHLHLLAHCYTVSGATGTAYRLLQHYYPFLELHVTRPRTAGASTSAAGGAAGGVGSGVLPFDARRTWTASYGVHPSQHPFSSGMPSATAAVTFSASSNENNLTSDEFELGYETVDLQSQWDCQYLLGVCCYRTQHYEDGARVLSQLLYVCHQVTTTSSVLRRRLQQLRQQQQQVTVRSDTSEEDDAGVAAAVRATERQLAGLCLRDGGAHFAGALLVGSVREASPAAPDRG | not soluble |
| MAHHHHHHMSEAAALESIMRPPSPELQRRLFVPTPSLHASAETARQHRAERQSALLAERATAYTCHPAILPVSREMAASERRRNGWMQLPVGDVLMERHKRVEGHLEEKRQQEVARFSFRPTISARARTMQSSRPVVERLYSGTADAGTDTATFTDVTNLRSSSGEKTKTASMATYQRLYQDAVTRRAHDQMQEKLARVRSKNEFCPCTDSVSGLIASKRGDTTRERLLRPKAALDVARDVYPQETFAPRINTSTRFERVPLSARAAIWQRRRSERLHHAVVARCEVEMRECTFHPRTRRGLTALSQAHARATADSYTGPLASIMSSAEELLRRVDLEASAPLPESGRCAPLLDDDGKLPGTVPVDILAVLHEAEHVSEALRLLPDTNLDLDLSQHTSLG | not soluble |
| MAHHHHHHMSGEKKEALKNDLPPIPGCDTDGQTYKSAEEMWAAELRGNLYDAETGWYGRSLQYWSKVPATVSGVLGGMEHIHDVDLKESRAFITSIPDRGTSRALDCGAGIGRVTKYLLSTLYTVTDLLEPVANMLEKAKEELKGYPVGEFFLSSMETVNLKPNTYDLIVIQWTAIYLTDDDFVKFLAHCKTALTLRGYIFFKENCSCDERFVVDKEDSSLTRSDAHYKRIFAAAGVEVVKETMQKEWPDDLFKVKMYALR | soluble |
| MAHHHHHHMSIYCRLASPPVFLRALHTVSVSRDGWATVVFTDSHVVLHVEGTDENMTATCTLPKNLFAEYAVVETRFALHIPTLIDALLMLG | not soluble |
| MAHHHHHHMSIYCRLASPPVFLRALHTVSVSRDGWATVVFTDSHVVLHVEGTDENMTATCTLPKNLFAEYAVVETRFALHIPTLIDALLMLGPSVATASTRAVLAYPTDDAKLLVELTPTDRVAGGGSCGGFSGGGPMTQSDLGV | soluble |
| MAHHHHHHMSLRLCVCTATANGEYYMSMFNKHLSSFFKTITLGSTVDDFKQDKDSKDSIILYVEGPVGHDAIKYLCDDYHLPKEQRRVLWIYSLTAGVDVYRLGELVKELQDIPFANARGCYSSVLAEHVMYSMLYFYRQTWRSLASRAEHKWDPFLMVELRGKKVGIIGYGDIGQASAKLLSAFGMEVTGVKRSASTKEVDEYGVRLVHGDAERERVLRESDFVVNILPGTEETKRFFNKELFSMMKPSAVYISIGRGITQNEDDLACALRDGVIRGASVDVFEREPLPAESPLWDISDDKLLLTAHSADRTANLVPDSVRRFIGLVNEYAKTKRLDTYLVDPVRGY | not soluble |
| MAHHHHHHMSLRPDVFGQPPIVDRFARFAIARRGSSSSHNNNNNNNNNNSGSVSPLERGGVHGNDKSPAAAPVAAGVGSKAGVRESSAKSRLSLGVSNTDVVLESPISSNAAEATSEVMDVTSTAQADDEEEDEVETLNRFMADQSDETATRTHKRTLFSLNLTLAEVMETAMHFSQMRPTSPEEYKKAMAMIRAADDARHERIAAFRSATPTTGSHNGMGSSPSSSLTTTPTVGYPDAALHIEEPMHFGVVMLHIRFALRKIIHASMRRLAAQQGPKTLSMMVEMLREVDPKWHQNQNNNSGELRRQSDSMLAGTLRVLVARSVVCVDLVGEAGDLLGGGAGGLAISAVGLQRTERALHLVQRAKRSATGSGGNTGDHVSRRRPQRHRGDGGARTSSSGEKRSIS | not soluble |
| MAHHHHHHMSLVKMKERDEKAREEAEKLLNEVIEQSQGKMYKPTAAAGVGVNTQPHNRRMRVETLRSTPDYIFKIILVGDSYVGKTRFLKNLVGAIGFGDQCVTTLSVDVVNHYVIVDGKTVQVLMYDTCGQERFRAMTAQFYRDAHGAIMVYDTTQIGSFDNIEVWFSQLNSFGCENTSKILVGNKCDLPERRAVEIGRARALADKLGVPFIETSAMTGAGVAVAVEALVRMIMRQQPVPLASQWAGSKSGHRNAVNLERPRRENGTGRRSERSQRNDNCCCQ | soluble |
| MAHHHHHHMSRHPLSRHINTSSVKLKIVKCKLFDIGEGISEVEITQWNKNEGDNVSEMETLLTVQSDKAAVDITSKYSGVLVKRYAEEKDVIKIGSYFCEIDTEDEVGEAAEEVVANEVADEADGRVDPGGPLSPAKVTQQGSKAPTVKASPGVKKKAQEYKLDVDAIGSYFSKEAITMLDVELYHQKVKSGEISNAGSDFNGEVLEEVPLKGIKLAMCKCMNDSLSIPLFHLNEKYNVQNLLSARNVIKKSVLQKDNVNVTLTSVLIKLISTVLKDFPLLNSKFDSQKNAYTIFKSHNVCVAMDTPNGLLVPNIKQVESKNVVEIQKELTSLRDKALQMKLSKSDISGGTITVSNFGVIGGTFATPIVFENQACIIGLSKIQKQLLLKNEKKELTALSDILVADVMNLTFGADHRFVDGATLAQFSKKLKEVVEGVTSLDPYAA | not soluble |
| MAHHHHHHMSRNGELCLKKVIISYCPSNGAPNTRQFLATHLPHFHAKYPSVSIDLRPRLWPEMAITGVYRDGSERSYNTKNLSPMGIFLRLNNLVSTANDYDQPFCASHLHFQRRSVQGTWNPWLWNYETERRRTEAPQWRRKLSEKEWDYYVGQYSAQMKQEEDEIQRRVADRTCVQEQSTREVQERWKRHVVPRMQTDLEFNLSHFKRQHARGQLQQRPVTMGEYRLFSVPDPRELGQDAVDTMRRRESHNMEVWWRKRKEQLKPP | not soluble |
| MAHHHHHHMSSAVVKPSNGEMPKTKEQKEMKNEYQVETNKELQVNLNFHNNNIISNIFSNLSLFDYLTNIFTINKKTYMLKYCNKLNEDNFYISYFQKENDKFAQISPWHDIDLMNEDGTYNMVVEITKYNYIKLEIQLKENFNVIKQDTKKGKLRYYHNSIYWNYGALPRTYEYPKHIYTCQTGDNQDLFFTGDDDPLDVVDVGQNSLKMGQVVPVKVGSMQSHMTYM | not soluble |
| MAHHHHHHMSSCQNTHAARLHSATSAYAGEPESWMWTPARENGDGWRSPGTGTATSATAEAALHFVWGRVLSVYAVMPLNQTWNVQGVVDAVLPPLPANGGTTAAPSPPAAPAMAPGFQLLVMAAALLSPPATATTAVAAAPSMASLHKLSLMSPADAEPVDVGELSGAFWLAALRRAWPLFQACGVSHEPMTQGSNTNITEEAASSLGGVAVGMAGSGVNLEDLRTIVLSLFLRFADDSAVASAMAAADGDGAKLCGSAIRWAEAMCSDAPATYAQ | not soluble |
| MAHHHHHHMSSELVLAQESAWDKFGSKLKDMPFLNNFFENPILGKLFGETELAAALREMKMYDQNFKLSELMYLFEFVISKHIVESYLIGDEETLRVHCGQSAFNSLNASINERKKKKVYLDTNVLIYKNHELKGAQRMEESSPWFIFTFHTQQINCLKNANDEIIEGNIDDIREVVYTIALSKHPEPEREGLLYPYIVREFAIY | not soluble |
| MAHHHHHHMSSSDLIKEDDYVFISGRGLNKIVQIKKDVTVRLGRSGAALATTLIGIRYGGVCHLDHARKKFVESDEYPDLDITEVGDGEEVKDNRDLVDDNTNQQLSNDEVAAIRRDKGLDELLQALVEKSASYRTKTNFAQEKYLKKKQKKYGTLFKVERVTVDNLAELHVPTINPSDNTSEDARCLRLRADTVALILHHSDVHHNSRVILYEKTNGVLPASLLTRMSDEGRIFQILDKNAQPSPTTAVKVLKLPLVKERWKAVPRNRGFLEGLEEPDKDSARDTAEAAEKNAAGAAAGKGLQRQDICASSTQWVKGLEARQLLLESSADSLVICDDEAPQRAVADLLPFLAFGGHIVVYSPFLEDLTGIFLALRDDCVNLQISETWYRHHQVLPKRTHPTVNMSTAAGYLLTAIKVCRNPAAPRLTAAVTAPALSATTHAGHKRSATEELNGMASKKSATREASDEGNAN | not soluble |
| MAHHHHHHMSSTVTGQAIPKLFPKAFHSWVGTGRIFNFLAPYEQNRVIAYLNSIYNTAPLFKWSLSIVPLYGIVSGYPPVEKIDFNSSAALCATGMVWFVYALLIQPQNSGSRSLALVNICLATVNGYNCYRSAQHKRRQAVNANRIE | not soluble |
| MAHHHHHHMSVPEWARSEHSIEEAKEYLRTGNSVDFFELVSSHILREHPLDVAAFALDLVERISKLGNTLSARDYHPKRVEDNKYLQEKNVCEFLNEWILALLKERPDTDEARMSFHKRYLKSLVDGGGCSQCTSVN | not soluble |
